Results published in the supplement of paper PMC9170038.

Test system: MS2 coat protein
Experiment: apparent KD of MS2 coat protein; designed switch direction (-1 OFF switch, 1 ON switch): -1; higher = weaker reporter binding
Procedure, shortened: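 Transcription of designed RNA switches on Illumina chips was done by stalled E. coli RNA polymerase. SNAP-549-labelled MS2 coat protein was then titrated in doubling steps from 0.7 or 1.5 nM to 3 µM, with steps of 0.8–1.5 h at the lowest and 10–20 min at the highest concentration. The per-design median over clusters of curve-fitted normalised fluorescence is reported as apparent KD.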

[1] = Eterna round: R95, input ligand: microRNA oligo, concentration not stated
[2] = input ligand: microRNA oligo, concentration not stated
[3] = Eterna round: R95, input ligand: FMN 200 uM
[4] = Eterna round: R95, input ligand: none

Row | Sequence | apparent KD of MS2 coat protein [1] [nM] | apparent KD of MS2 coat protein (input ligand: FMN 200 uM) [nM] | apparent KD of MS2 coat protein [2] [nM] | apparent KD of MS2 coat protein (input ligand: none) [nM] | apparent KD of MS2 coat protein [3] [nM] | apparent KD of MS2 coat protein [4] [nM]
1 | CUGAUGUCAGGAUAUCAGAAAAGGUGCAAGGACGCACCAAAUGAGAAGGGACAUGAGGAUCACCCAUGUAAAAC [Maqucema] (puzzle: Exclusion 4) | 25.4 |  |  |  |  | 
2 | CUGCUCCGUGUAGGAUAUCCAUGCAACCAAUAUGGAGAAGGACAUGAGGAUCACCCAUGUAUGUUAUUAUCACGUGAAGCGUCC [Design 23] (Eterna round: R96, puzzle: Exclusion NG 1) |  | 28.6 | 24 | 31.2 |  | 
3 | CUGCUCCGUGUAGGAUAUCCCGGCAACCAAUCGGGAGAAGGACAUGAGGAUCACCCAUGUAUGUUAUUAUCACGUGAAGCGUCC [Design 27] (Eterna round: R96, puzzle: Exclusion NG 1) |  |  | 16.3 |  |  | 
4 | CUGCUCCGUGUAGGAUAUCCGGGCAACCAAUCCGGAGAAGGACAUGAGGAUCACCCAUGUAUGUUAUUAUCACGUGAAGCGUCC [Design 25] (Eterna round: R96, puzzle: Exclusion NG 1) |  |  | 15.6 |  |  | 
5 | CUGCUCCGUGUAGGAUAUGCAUACUCCCACUAUGCAGAAGGACAUGAGGAUCACCCAUGUAUGUUAUUAUCACGUGUAGCGUAC [Design 16] (Eterna round: R96, puzzle: Exclusion NG 1) |  |  | 21.7 |  |  | 
6 | CUGCUCCGUGUAGGAUAUGCAUACUCCCAUUAUGCAGAAGGACAUGAGGAUCACCCAUGUAUGUUAUUAUCACGUGUUGCGUAC [Design 14] (Eterna round: R96, puzzle: Exclusion NG 1) |  |  | 20 |  |  | 
7 | CUGCUGGAGCGGUGCUUUGGUCGUACAUGAGGAUCACCCAUGUAGGAUAUGGUAAAAUUUGCUUGCUAGAAGGAUAGAGUGGUC [salish99_ExNG3_r04_614] (Eterna round: R96, puzzle: Exclusion NG 3) |  | 96.9 | 42.4 | 61.3 |  | 
8 | CUGGUCCGAGGAUAUAUUAAGUGAAACAUGAGGAUCACCCAUGUUAUUUGAUGGAUGAAAAUAGAAGGCGGACUAG [Mat - Exclusion 5 - JL mod - D58] (puzzle: Exclusion 5) | 41.1 |  |  |  | 22.9 | 45.2
9 | CUGGUCCGAGGAUAUAUUAAGUGAUACAUGAGGAUCACCCAUGUAAUUUAAUGGAUGUAAAUAGAAGGCGGACUAG [JL-ex5-3.11] (puzzle: Exclusion 5) | 39.7 |  |  |  | 43.2 | 38.7
10 | CUGGUCCGAGGAUAUAUUAUGUGAAACAUGAGGAUCACCCAUGUAAUAUGAUGGAUAUAAAUAGAAGGCGGACUAG [Mat - Exclusion 5 - JL mod - D31] (puzzle: Exclusion 5) | 19.9 |  |  |  | 22.4 | 31.1
11 | CUGGUCCGAGGAUAUAUUAUGUGAAACAUGAGGAUCACCCAUGUAAUAUGAUGGAUGUAAAUAGAAGGCGGACUAG [JL-ex5-3.07] (puzzle: Exclusion 5) | 37.3 |  |  |  | 38.2 | 47.2
12 | CUGGUCCGAGGAUAUAUUUUGUGAAACAUGAGGAUCACCCAUGUAAUAAAAUGGAAAUAAAUAGAAGGCGGACUAG [Mat - Exclusion 5 - JL mod - D42] (puzzle: Exclusion 5) | 20.8 |  |  |  | 25.2 | 24.2
13 | CUGGUCCGAGGAUAUAUUUUGUGAAACAUGAGGAUCACCCAUGUAAUAAAAUGGAUGUAAAUAGAAGGCGGACUAG [Mat - Exclusion 5 - JL mod - D40] (puzzle: Exclusion 5) | 29 |  |  |  | 26.7 | 30
14 | CUGGUGUGAGGAUAUCAAAGACCUCGGUAAAGAACCGAGGAUGAGAAGGCACAUGAGGAUCACCCAUGUAACAA [Lauscege] (puzzle: Exclusion 4) | 22.6 |  |  |  |  | 
15 | CUGGUGUGAGGAUAUCAGGACACAUCCGCGGGCGUGUCAAAUGAGAAGGCACAUGAGGAUCACCCAUGUGGGAC [Onquveatge] (puzzle: Exclusion 4) | 44.2 |  |  |  | 57.1 | 53.2
16 | CUGUAGCUACAAGCUUUUUGCACGUCAGGUAGUGACGCAACAUGAGGAUCACCCAUGUAUAGGGUGGGACAGGAUAG [JR_SV3TOV2_Sub049] (puzzle: Sensor v3, turn-off variant 2) | 153 |  |  |  | 443 | 495

Row | Sequence | apparent KD of MS2 coat protein [1] [nM] | apparent KD of MS2 coat protein (input ligand: FMN 200 uM) [nM] | apparent KD of MS2 coat protein [2] [nM] | apparent KD of MS2 coat protein (input ligand: none) [nM] | apparent KD of MS2 coat protein [3] [nM] | apparent KD of MS2 coat protein [4] [nM]
17 | CUGUGCACGCUGCGAUCCUACAUGAGGAUCACCCAUGUGGUCUGGUGGCGUGGGUCACCGGACUUGGCUCGUCUUGA [salish99_S_TOV1_R5_070] (Eterna round: R97, puzzle: Sensor, turn-off variant 1) |  | 147 |  | 156 |  | 
18 | CUGUGUAGACAGGAUAUGCUGUACAAAAGUACAGCAGAAGGGUCUACAUGAGGAUCACCCAUGUAUACCUCAUG [)mei Ex6 B25] (Eterna round: R97, puzzle: Exclusion 6) |  | 735 |  | 88.8 |  | 
19 | CUGUGUCCGCAGGAUAUGUCAUCCUGAAGGAUCACAGAAGGGCGGACAUGAGGAUCACCCAUGUGAGCCAAAGA [EX6 A.11] (Eterna round: R97, puzzle: Exclusion 6) |  | 16.7 |  | 17.9 |  | 
20 | CUGUUCCGUGUAGGAUAUGCAUAUUCUCAUUAUGCAGAAGGACAUGAGGAUCACCCAUGUAUGUUAUUAUCAUGUGUUACAUGU [Design 6] (Eterna round: R96, puzzle: Exclusion NG 1) |  |  | 22.4 |  |  | 
21 | CUGUUUUCCGCAGGAUAUGCUCCUCCAUUACUAGCAGAAGGGCGUUGAACAUGAGGAUCACCCAUGUAUGUAAUUGCUUAUUGC [JR_ExcNG1_Sub072] (Eterna round: R96, puzzle: Exclusion NG 1) |  | 19.2 | 14.6 | 19.4 |  | 
22 | CUUAAGGCAGGAUAUGCUUUUUGUGACAUGAGGAUCACCCAUGUGAUGCAGUUUGGGUUUGCAGAAGGGCCUGAGU [JR_E5_Sub034] (puzzle: Exclusion 5) | 82.6 |  |  |  |  | 
23 | CUUAAGUCAGGAUAUCAGGAGCAAGCUUAACGGGCACUCGCUGAGAAGGGACAUGAGGAUCACCCAUGUGCUCG [Eternabot (L2) Solution 17] (Eterna round: R97, puzzle: Exclusion 4) |  | 52.3 |  | 24.7 |  | 
24 | CUUAAUUGUCAGAUGGGUGACAUGAGGAUCACCCAUGUCACAAGCUUUUUGUUCGUCUUAUAAUUAACCCAUCUGAC [Stov1/11-B3] (Eterna round: R97, puzzle: Sensor, turn-off variant 1) |  | 14.5 |  | 12.3 |  | 
25 | CUUAGACAUGAGGAUCACCCAUGUGAGGAUAUGAAAUGAAUUAAGUAUGAAGUAUGAAUCAGAAGGCACAUAUG [Mat - Mod of Hyphema D33] (puzzle: Exclusion 1) | 95.8 |  |  |  | 63 | 107
26 | CUUAGACAUGAGGAUCACCCAUGUGAGGAUAUGAAAUUAAUUAAUUAUUAAUUAUGAAUCAGAAGGCACAUAUG [Mat - Mod of Hyphema D37] (puzzle: Exclusion 1) | 47.9 |  |  |  | 121 | 50.9
27 | CUUAGCCUAAAAUCACGCAAGCUUUUUGCUUGUCUUAAGACAUGAGGAUCACCCAUGUCCGGGCUGAACUUAUGUAA [Laantiusan] (puzzle: Sensor v3, turn-off variant 2) | 30.9 |  |  |  | 22.7 | 26.4
28 | CUUAUGUGAGGAUAUCAGUAGUAAUACAAUAGUAUUACUACUGAGAAGGCACAUGAGGAUCACCCAUGUUCCUU [Exclusion 4 - Mod Omei Ex4 344 mod v.1] (puzzle: Exclusion 4) | 27.5 |  |  |  |  | 
29 | CUUAUGUGAGGAUAUGCCUGGCCGUGAGGCCAAAUUGAUAAGCAGAAGGCACAUGAGGAUCACCCAUGUGCGGG [jl-ex4-4.68 ViennaUCT mod] (Eterna round: R97, puzzle: Exclusion 4) |  | 112 |  | 241 |  | 
30 | CUUCAGUCAGGAUAUCAUGAGCUCUGCCGACACGGGCUCGCUGAGAAGGGACAUGAGGAUCACCCAUGUAGACC [EX4 C.20] (Eterna round: R97, puzzle: Exclusion 4) |  | 132 |  | 34.1 |  | 
31 | CUUCAUUGUUGAGGAUAUAAUUAUAGGAUGUAGUUAGAAGGCGAACAUGAGGAUCACCCAUGUCAGGCAUGGAGACCCUUGACC [Eternabot solution 8] (Eterna round: R96, puzzle: Exclusion NG 1) |  |  | 308 |  |  | 
32 | CUUCCACGGAUUGUAUUAAACAUGAGGAUCACCCAUGUCCGGGAUUUAAAACAAGCCCUUUGCUCAGUCCUUAUUGC [Eternabot (L1) Solution 10] (Eterna round: R97, puzzle: Sensor, turn-off variant 1) |  | 22.2 |  | 25.9 |  | 
